According to paper PMC4230784 (Molecular Biology of the Cell, 2014):

Target: flag-TBC1D9B, full length, wild type (human, UniProt Q66K14-1 1-1250)
Test: co-IP

flag-TBC1D9B, full length, wild type, sequence (Q66K14 whole entry): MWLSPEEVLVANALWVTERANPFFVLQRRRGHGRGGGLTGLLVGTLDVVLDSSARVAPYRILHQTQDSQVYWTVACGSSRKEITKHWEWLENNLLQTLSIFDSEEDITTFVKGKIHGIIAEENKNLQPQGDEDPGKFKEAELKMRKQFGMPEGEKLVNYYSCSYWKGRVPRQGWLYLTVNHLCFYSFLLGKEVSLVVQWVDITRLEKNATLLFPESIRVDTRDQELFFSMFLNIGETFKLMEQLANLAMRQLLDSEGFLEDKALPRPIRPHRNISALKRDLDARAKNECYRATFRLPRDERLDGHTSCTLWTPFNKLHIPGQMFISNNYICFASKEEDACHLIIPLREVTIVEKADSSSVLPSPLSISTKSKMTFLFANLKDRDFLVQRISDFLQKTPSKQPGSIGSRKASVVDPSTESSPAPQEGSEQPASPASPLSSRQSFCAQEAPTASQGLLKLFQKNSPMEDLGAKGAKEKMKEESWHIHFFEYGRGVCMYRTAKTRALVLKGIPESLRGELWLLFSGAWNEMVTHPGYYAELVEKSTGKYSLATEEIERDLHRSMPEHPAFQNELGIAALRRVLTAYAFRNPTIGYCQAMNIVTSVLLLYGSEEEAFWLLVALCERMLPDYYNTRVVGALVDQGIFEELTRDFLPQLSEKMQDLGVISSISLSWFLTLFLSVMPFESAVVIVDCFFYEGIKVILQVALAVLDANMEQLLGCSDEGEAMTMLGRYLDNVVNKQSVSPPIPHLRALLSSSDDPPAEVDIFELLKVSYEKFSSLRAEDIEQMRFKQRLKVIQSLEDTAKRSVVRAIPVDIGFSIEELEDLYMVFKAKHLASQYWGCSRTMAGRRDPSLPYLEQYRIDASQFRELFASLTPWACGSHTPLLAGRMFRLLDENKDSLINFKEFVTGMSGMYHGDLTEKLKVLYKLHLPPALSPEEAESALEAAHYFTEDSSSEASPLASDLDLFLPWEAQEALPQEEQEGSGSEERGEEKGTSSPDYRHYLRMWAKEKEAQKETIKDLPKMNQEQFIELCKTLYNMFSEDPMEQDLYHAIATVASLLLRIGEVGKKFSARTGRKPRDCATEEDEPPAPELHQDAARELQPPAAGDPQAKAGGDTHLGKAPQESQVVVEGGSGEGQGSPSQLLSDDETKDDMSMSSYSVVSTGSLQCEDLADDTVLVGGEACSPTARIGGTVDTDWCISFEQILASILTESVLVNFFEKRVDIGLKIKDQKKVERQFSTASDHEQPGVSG

B1: GFP-Rab11aQ70L (natural protein, UniProt P62491 1-216, looked up)
chain: MGTRDDEYDYLFKVVLIGDSGVGKSNLLSRFTRNEFNLESKSTIGVEFATRSIQVDGKTIKAQIWDTAGLERYRAITSAYYRGAVGALLVYDIAKHLTYENVERWLKELRDHADSNIVIMLVGNKSDLRHLRAVPTDEARAFAEKNGLSFIETSALDSTNVEAAFQTILTEIYRIVSQKQMSDRRENDMSPSNNVVPIHVPPTTENKPKVQCCQNI
**Q.** With B1 as the binder, how does the “fold coimmunoprecipitated against Rab11a-WT or Rab11a-SN” value read?
**A.** The value was about 5 fold.
